The record followed here is patent KR20210154940A (dated 2021).

The target of test [1] is CEACAM1 N-도메인 (CEACAM1 N-domain, residues 35-141) (human) (UniProt P13688). Nature of the test: X-ray crystal structure of the Fab and N-domain complex.
The target of test [2] is T1, hCEACAM1 (R&D Systems, CAT. NO. 2244-CM) (human, UniProt P13688 35-428).
T1 construct: not shown: a His tag is implied by the use of Anti-His (His1K) biosensors
T1 sequence: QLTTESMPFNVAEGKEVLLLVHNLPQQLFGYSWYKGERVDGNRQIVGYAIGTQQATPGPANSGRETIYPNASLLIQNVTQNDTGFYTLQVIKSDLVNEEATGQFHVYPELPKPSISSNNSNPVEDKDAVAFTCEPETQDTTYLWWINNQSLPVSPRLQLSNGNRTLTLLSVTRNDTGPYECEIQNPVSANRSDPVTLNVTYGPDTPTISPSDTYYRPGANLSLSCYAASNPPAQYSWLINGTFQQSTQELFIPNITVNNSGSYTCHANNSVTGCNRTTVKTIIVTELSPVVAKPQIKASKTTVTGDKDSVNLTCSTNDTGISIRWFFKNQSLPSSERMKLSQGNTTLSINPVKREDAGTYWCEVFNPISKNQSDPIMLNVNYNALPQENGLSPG
Nature of the test: BLI (Octet QKe); Anti-His (His1K) biosensors, hCEACAM1 (R&D 2244-CM), antibody at 6.25-400 nM.

For test [3], the target named is T1, hCEACAM1 (R&D Systems, CAT. NO. 2244-CM). Description: not named in this sentence (BLI in Example 4); differs from the table cell.
Test [4] has the same target. Description: BLI (Octet QKe); sentence that introduces Table 5, differs from the table cell.

B1: 항-CEACAM1 항체의 Fab (Fab of the anti-CEACAM1 antibody, papain fragment of the IgG1-type antibody) (Fab, V domains shown)
VH: EVQLLESGGGLVQPGGSLRLSCAASGFTFSNYAMSWVRQAPGKGLEWVSVISHGGGSIYYADSVKGRLTISRDNSKNTLYLQMNSLRAEDTAVYYCARDPTKGYAPTFDYWGQGTLVTVSS
VL: QSVLTQPPSASGTPGQRVTISCSGSSSNIGNNYVSWYQQLPGTAPKLLIYADSRRPSGVPDRFSGSKSGTSASLAISGLRSEDEADYYCGAWDLSLNGYVFGGGTKLTVLG
In test [1], B1 had a 항원-항체 결합의 전체 표면적 of 792 Å2.

B2: 항-CEACAM1 항체 (anti-CEACAM1 antibody, IgG4 type) (antibody, V domains shown)
VH: B1 VH
VL: B1 VL
notes: also called 일 실시예의 항-CEACAM1 항체
As for B2, in test [2], the Kd was 3.39 nM, the koff was 0.000567 s⁻¹ and the on-rate constant (kon) worked out at 163000 M⁻¹ s⁻¹. The molecule also gave a Kd in test [3] of 3.36 nM. In test [4], the Kd stood at 3.9 nM.
